Measured values taken from patent US20070203054A1 (YISSUM RESEARCH DEVELOPMENT COMPANY OF THE HEBREW …, published 2007).

B1: CD99-Ig fusion protein (Fc fusion)
chain: DGGFDLSDALPDNENKKPTAIPKKPSAGDDFDLGDAVVDGENDDPRPPNPPKPMPNPNPNHPSSSGSFSDADLADGVSGGEGKGGSDGGGSHRKEGEEAD
B2: NKp30-Ig fusion protein (Fc fusion, human, UniProt O14931 19-135, looked up, not shown: a dimerising Fc or GST)
chain: LWVSQPPEIRTLEGSSAFLPCSFNASQGRLAIGSVTWFRDEVVPGKEVRNGTPEFRGRLAPLASSRFLHDHQAELHIRDVRGHDASIYVCRVEVLGLGVGTGNGTRLVVEKEHPQLG

The molecules below were run against HA of influenza virus X-127 (H1N1) on infected cells (influenza A virus X-127 (H1N1)) (assay: not given).
In the case of “NKp30-Ig fusion protein (from UniProt O14931 19-135) (Fc fusion)”, the MFI is reported as 6.
With “NKp44-Ig fusion protein (from UniProt O95944 22-190) (Fc fusion)” the MFI was 220.
“NKp46-Ig fusion protein (from UniProt O76036 22-254) (Fc fusion)” was tested, and the MFI was 107.
With “NKp46D1-Ig fusion protein (membrane distal domain of NKp46 fused to Fc of human IgG1) (from UniProt O76036 22-120) (Fc fusion)” the MFI was 5.
“NKp46D2-Ig fusion protein produced in COS cells (membrane proximal domain of NKp46 fused to Fc of human IgG1) (from UniProt O76036 121-254) (Fc fusion)” showed an MFI of 160.
B1 was tested, and the MFI was 1.

What follows are molecules tested against rosettes of HA from X31 (A/Aichi/2/68xpr/8/34) H3N2 influenza virus (influenza A virus X31 …, UniProt P03437 17-520) (assay: ELISA, plates coated with HA rosettes).
B2: no binding.
